Columns and labels:
[1] = molecular target: T1, IL-18 receptor (IL-18Rα/IL-18Rβ) overexpressed on HEK-Blue IL-18 cells (Homo sapiens (Human), UniProt Q13478 19-541; O95256 20-599); assay: cell-based or functional assay
T1 sequence 1: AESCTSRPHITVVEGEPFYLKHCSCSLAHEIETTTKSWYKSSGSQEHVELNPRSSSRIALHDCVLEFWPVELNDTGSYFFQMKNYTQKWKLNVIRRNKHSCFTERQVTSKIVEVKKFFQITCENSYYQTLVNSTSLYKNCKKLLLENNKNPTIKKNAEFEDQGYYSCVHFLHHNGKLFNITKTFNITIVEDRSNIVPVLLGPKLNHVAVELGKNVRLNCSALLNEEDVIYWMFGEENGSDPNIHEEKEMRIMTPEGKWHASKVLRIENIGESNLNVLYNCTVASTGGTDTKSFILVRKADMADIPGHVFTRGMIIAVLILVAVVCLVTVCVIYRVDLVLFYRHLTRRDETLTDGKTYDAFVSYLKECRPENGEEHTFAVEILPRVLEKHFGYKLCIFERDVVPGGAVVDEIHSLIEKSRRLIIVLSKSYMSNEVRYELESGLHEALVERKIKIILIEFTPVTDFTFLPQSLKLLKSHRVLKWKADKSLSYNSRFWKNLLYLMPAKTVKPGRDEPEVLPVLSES
T1 sequence 2: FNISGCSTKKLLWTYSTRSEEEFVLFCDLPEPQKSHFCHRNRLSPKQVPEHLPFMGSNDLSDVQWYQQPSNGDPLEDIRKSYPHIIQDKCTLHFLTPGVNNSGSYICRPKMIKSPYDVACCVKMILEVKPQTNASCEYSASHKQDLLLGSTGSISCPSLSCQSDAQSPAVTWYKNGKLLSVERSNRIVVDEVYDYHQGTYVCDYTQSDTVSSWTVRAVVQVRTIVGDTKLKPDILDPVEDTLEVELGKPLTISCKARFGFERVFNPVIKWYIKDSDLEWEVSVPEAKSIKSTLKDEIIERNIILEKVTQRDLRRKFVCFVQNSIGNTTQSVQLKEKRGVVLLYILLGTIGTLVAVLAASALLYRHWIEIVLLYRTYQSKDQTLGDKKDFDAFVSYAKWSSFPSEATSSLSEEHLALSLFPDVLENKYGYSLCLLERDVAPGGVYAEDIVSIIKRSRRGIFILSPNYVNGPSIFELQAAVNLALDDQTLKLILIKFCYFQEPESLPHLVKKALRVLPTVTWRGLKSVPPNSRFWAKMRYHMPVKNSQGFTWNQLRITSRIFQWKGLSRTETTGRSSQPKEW

[2] = molecular target: T2, IL-18 receptor (IL-18Rα/IL-18Rβ) on human PBMCs (human, UniProt Q13478 19-541; O95256 20-599); assay: cell-based or functional assay
T2 sequence 1: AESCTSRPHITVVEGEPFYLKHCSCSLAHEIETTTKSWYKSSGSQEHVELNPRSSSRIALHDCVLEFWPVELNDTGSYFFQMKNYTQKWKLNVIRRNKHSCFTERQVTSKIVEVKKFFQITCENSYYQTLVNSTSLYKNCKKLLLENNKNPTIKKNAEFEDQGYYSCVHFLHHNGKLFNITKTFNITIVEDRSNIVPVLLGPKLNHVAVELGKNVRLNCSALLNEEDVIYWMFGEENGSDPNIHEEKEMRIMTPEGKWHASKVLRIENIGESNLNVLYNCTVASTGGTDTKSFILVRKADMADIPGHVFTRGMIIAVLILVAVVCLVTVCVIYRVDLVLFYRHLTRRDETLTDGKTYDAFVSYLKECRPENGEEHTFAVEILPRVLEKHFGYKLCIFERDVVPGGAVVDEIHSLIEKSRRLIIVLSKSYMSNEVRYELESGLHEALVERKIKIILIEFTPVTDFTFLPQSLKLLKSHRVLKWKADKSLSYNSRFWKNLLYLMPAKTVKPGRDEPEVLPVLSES
T2 sequence 2: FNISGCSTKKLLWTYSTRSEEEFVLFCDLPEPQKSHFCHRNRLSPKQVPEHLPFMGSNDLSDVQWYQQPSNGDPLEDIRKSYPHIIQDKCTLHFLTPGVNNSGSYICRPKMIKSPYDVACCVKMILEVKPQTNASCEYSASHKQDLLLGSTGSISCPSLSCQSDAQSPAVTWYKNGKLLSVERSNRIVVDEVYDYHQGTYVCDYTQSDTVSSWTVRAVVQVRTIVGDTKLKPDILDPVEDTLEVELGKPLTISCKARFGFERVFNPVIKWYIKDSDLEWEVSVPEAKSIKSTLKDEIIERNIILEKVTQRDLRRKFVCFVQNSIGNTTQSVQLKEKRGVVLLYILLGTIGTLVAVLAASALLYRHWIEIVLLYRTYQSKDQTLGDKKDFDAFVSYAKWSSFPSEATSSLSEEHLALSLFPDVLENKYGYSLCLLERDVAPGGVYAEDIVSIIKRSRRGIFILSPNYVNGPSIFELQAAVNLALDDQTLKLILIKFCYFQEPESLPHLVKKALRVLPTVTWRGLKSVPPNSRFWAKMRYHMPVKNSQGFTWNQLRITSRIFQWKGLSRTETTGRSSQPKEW

human IL-18Rα = molecular target: T3, human IL-18Rα (human, UniProt Q13478 19-329, limits assumed); assay: SPR (Carterra LSA), antibody captured on anti-human IgG-Fc, monomeric antigen as analyte, 25 C
T3 construct: Monomeric antigen injected in SPR; also called huIL18Ra; IL-18R alpha
T3 sequence: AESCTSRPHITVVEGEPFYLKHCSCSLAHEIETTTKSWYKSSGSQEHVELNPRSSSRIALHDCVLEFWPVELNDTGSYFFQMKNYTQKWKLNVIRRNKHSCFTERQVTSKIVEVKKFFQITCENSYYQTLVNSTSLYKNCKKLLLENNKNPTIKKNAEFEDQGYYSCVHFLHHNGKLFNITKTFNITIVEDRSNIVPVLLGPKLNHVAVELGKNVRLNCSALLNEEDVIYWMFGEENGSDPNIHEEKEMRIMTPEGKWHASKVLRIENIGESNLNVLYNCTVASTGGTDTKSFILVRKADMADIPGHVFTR
Method: (§1) SPR experiments were performed using Carterra LSA equipped with an HC30M chip (Carterra-Bio). Binding assays were carried out at 25° C. with HBSTE (10 mM HEPES ph7.4, 150 mM NaCl, 3 mM EDTA, 0.05% Tween-20) with 0.5 g/L BSA. A density of anti-human IgG-Fc capture lawn was established on an HC30M chip using amine coupling. […] Coupling of goat anti-human IgG (H+L) multi-species SP ads-UNLB (Southern Biotech, 2087-01) with standard immobilization was done for 15 minutes in 10 mM sodium acetate pH 4.5 and quenched using 1M ethanolamine HCl PH8.5. The anti-human IgG-Fc capture surface was then used to capture a panel of antibodies at 20 μg/mL. Monomeric antigen for human IL-18Rα, human IL-18Rβ, cynomolgus IL-18Rα, or rhesus IL-18Rβ targeted by the antibodies was injected over the captured antibody array at 6 concentrations in 4-fold dilution series starting at 500 nM. Binding data was referenced and blanked from a buffer injected, then globally fit to a 1:1 Langmuir binding model for estimation of ka, kd, and KD using Carterra Kinetics Software.

human IL-18Rβ = molecular target: T4, human IL-18Rβ (human, UniProt O95256 20-356, limits assumed); assay: as above
T4 construct: Monomeric antigen injected in SPR; also called IL-18R beta; IL-18Rb
T4 sequence: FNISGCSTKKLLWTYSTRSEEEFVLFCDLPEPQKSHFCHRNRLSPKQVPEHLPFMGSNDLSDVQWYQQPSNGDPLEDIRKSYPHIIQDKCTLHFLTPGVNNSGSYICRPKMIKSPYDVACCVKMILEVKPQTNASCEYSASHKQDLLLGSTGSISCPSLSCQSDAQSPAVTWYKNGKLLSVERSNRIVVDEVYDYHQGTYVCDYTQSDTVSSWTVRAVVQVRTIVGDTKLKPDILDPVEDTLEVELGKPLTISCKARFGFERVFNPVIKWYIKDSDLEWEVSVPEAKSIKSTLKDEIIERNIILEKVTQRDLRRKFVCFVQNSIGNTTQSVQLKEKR
Method: as §1

cynomolgus IL-18Rα = molecular target: T5, cynomolgus IL-18Rα (cynomolgus, UniProt A0A2K5V3J9 19-328); assay: as above
T5 construct: also called Cyno IL-18Rα; non-human primate IL-18Rα
T5 sequence: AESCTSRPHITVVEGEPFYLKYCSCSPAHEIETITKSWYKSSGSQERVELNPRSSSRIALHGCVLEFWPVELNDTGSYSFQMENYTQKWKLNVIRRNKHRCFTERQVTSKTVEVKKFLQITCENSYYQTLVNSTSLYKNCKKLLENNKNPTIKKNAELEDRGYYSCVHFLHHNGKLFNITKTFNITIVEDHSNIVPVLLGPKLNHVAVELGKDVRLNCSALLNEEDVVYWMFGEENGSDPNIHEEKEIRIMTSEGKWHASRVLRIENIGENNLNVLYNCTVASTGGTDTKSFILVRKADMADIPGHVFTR
Method: as §1

rhesus IL-18Rβ = molecular target: T6, rhesus IL-18Rβ (rhesus, UniProt F7HHC1 20-356); assay: as above
T6 construct: also called non-human primate IL-18Rβ
T6 sequence: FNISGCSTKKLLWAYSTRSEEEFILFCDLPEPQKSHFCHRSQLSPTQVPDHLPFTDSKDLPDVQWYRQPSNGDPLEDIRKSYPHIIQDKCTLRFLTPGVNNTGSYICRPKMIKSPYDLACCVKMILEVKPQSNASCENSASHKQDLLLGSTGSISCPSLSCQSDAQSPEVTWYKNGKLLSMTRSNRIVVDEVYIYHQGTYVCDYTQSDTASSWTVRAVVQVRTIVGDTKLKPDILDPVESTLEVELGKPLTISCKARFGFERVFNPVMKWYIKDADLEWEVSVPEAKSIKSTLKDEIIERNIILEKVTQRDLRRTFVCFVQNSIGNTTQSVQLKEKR
Method: as §1

B1: DGL346 (bispecific antibody)
heavy 1: EVQLVESGGGLIQPGGSLRLSCAASGSISSRDTMGWYRQAPGKGREMVSVISSSGNTNYADSVLGRFTISRDNAKNTVYLQMNALRAEDTAVYKCYAHRTYGVDYWGQGTLVTVSSGGGSQVQLVESGGGLVQPGGSLRLSCAASGRTFSSYTMGWFRQAPGKGREFVSAISWSAGRTYYADSVKGRFTISRDNAKNTVYLQMNALRAEDTAVYYCAAEEAPDWAPIDCSGYGCLSLYDYWGQGTLVTVSDKTHTCPPCPAPEAAGAPSVFLFPPKPKDTLYITREPEVTCVVVDVSHEDPEVKFNWYVDGVEVHNAKTKPREEQYNSTYRVVSVLTVLHQDWLNGKEYKCKVSNKALPAPIEKTISKAKGQPREPQVCTLPPSRDELTKNQVSLSCAVKGFYPSDIAVEWESNGQPENNYKTTPPVLDSDGSFFLVSKLTVDKSRWQQGNVFSCSVMHEALHNHYTQKSLSLSPG
heavy 2: DKTHTCPPCPAPEAAGAPSVFLFPPKPKDTLYITREPEVTCVVVDVSHEDPEVKFNWYVDGVEVHNAKTKPREEQYNSTYRVVSVLTVLHQDWLNGKEYKCKVSNKALPAPIEKTISKAKGQPREPQVYTLPPCRDELTKNQVSLWCLVKGFYPSDIAVEWESNGQPENNYKTTPPVLDSDGSFFLYSKLTVDKSRWQQGNVFSCSVMHEALHNHYTQKSLSLSPG
notes: humanized
HEK-Blue IL-18: Abs 405 at 100 nM [1]: 1.34 Abs | HEK-Blue IL-18: Fold over Background [1]: 7.2 fold | PBMC: calculated maximum induction of IFNγ after 24 hours, donor 1 [2]: 16000 | PBMC: calculated maximum induction of IFNγ after 24 hours, donor 2 [2]: 1700 | PBMC: calculated maximum induction of IFNγ after 24 hours, donor 3 [2]: 22000 | PBMC: calculated maximum induction of IFNγ after 24 hours, donor 4 [2]: 17000 | PBMC: calculated maximum induction of IFNγ after 24 hours, donor 5 [2]: 15000 | PBMC: calculated maximum induction of IFNγ after 24 hours, donor 6 [2]: 3000 | Kd (human IL-18Rα): 60 nM | Kd (human IL-18Rβ): 2.2 nM | Kd (cynomolgus IL-18Rα): 900 nM | Kd (rhesus IL-18Rβ): 10 nM

Source: US20240209100A1 (DIAGONAL THERAPEUTICS, published 2024)
